Assay results reported in US7867500B2, “Cofactor that modulates steroid receptor activities” (The United States of America as represented by the …, priority 2004, dated 2011).

How the values were obtained:
[1] = test system: GR repression of an AP-1 induced gene; assay: GR-mediated repression of PMA-induced AP-1/Luc reporter in U2OS.rGR cells; type: cell-based; conditions: for fold repression of PMA-induced AP-1 expression by Dex-bound GR: 25 μM PMA ± 0.1 μM Dex, TIF2 20 ng, STAMP 100 ng plasmid
Method: FIG. 5A-F illustrate STAMP modulation of GR-mediated repression. […] U2OS.rGR cells were transiently transfected with ±TIF2 (20 ng)±STAMP (100 ng) plasmids, AP-1/Luc reporter (20 ng), and Renilla control (10 ng) plasmid. The cells were induced with ethanol (EtOH) or 25 μM PMA±0.1 μM Dex. […] The average values±S.E.M. of four experiments are plotted. The numbers in parentheses above the bars labeled “PMA+Dex” represent the average fold repression caused by Dex± the various factors.
FIG. 5B illustrates that functional TIF2 is needed for optimal STAMP activity. U2OS.rGR cells were transiently transfected and processed as described for FIG. 5A but less STAMP (50 ng) was used and two concentrations of TIF2 or TIF2m123 (10 and 20 ng) were employed. The average values±S.E.M. of 4-5 experiments are plotted. An asterisk indicates a significant difference (P≦0.031) between samples containing equal amounts of TIF2 and TIF2m123.
Rogatsky et al. have reported that TIF2 augments GR repression of an AP-1 induced gene. […] The TIF2 domain identified as having TIF2 activity in GR repression was the same as used to isolate STAMP. In order to determine if STAMP was active in GR-mediated gene repression as well as induction, the ability of STAMP to increase the repressive activity of GR in the AP-1 responsive whole cell bioassay system was assessed using U2OS.rGR cells.

[2] = biological target: T1, glucocorticoid receptor (GR) (Rattus norvegicus, UniProt P06536); assay: GR-mediated induction of GREtkLUC reporter, transient transfection of CV-1 cells
T1 sequence (P06536 1-795): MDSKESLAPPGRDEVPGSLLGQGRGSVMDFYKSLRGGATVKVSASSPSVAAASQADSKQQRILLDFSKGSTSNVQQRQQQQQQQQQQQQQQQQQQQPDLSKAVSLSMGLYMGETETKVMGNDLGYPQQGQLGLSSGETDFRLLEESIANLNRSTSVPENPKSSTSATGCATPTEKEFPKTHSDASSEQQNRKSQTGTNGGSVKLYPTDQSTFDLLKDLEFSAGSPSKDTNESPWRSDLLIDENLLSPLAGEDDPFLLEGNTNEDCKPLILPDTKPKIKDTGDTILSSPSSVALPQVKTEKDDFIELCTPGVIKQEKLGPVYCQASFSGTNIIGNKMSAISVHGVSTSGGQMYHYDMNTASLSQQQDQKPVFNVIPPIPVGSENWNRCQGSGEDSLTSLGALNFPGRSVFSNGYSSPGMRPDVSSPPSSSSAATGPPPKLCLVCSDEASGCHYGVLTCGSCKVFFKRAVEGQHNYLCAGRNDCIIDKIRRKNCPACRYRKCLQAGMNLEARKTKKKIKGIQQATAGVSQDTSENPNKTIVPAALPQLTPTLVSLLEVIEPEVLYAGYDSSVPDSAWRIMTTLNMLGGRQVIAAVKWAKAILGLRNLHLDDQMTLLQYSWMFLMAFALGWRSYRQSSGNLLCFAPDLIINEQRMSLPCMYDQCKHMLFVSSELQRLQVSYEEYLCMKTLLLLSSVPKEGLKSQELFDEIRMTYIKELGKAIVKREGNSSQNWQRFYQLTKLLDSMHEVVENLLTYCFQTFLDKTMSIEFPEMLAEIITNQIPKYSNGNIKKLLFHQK
Method: Triplicate samples of CV-1 cells were transiently transfected with GR (6 ng)±TIF2 (20 ng)±STAMP (160 ng) plasmids, GREtkLUC reporter, and Renilla control plasmid. […] FIG. 4B illustrates the fold changes in GR induction parameters by STAMP and TIF2. […] The fold-increase in each parameter was determined as follows: for EC50s, fold increase=[EC50]GR/[EC50]GR+factor; for partial agonist activity and fold Dex induction, fold increase=activityGR+factor/activityGR). The average fold increases were then plotted±S.E.M (n=4).
CV-1 cells were transiently transfected with GR (6 ng)±TIF2 (20 ng)±STAMP (160 ng) plasmids, GREtkLUC reporter, and Renilla control plasmid, and induced with ethanol± the indicated concentrations of Dex.
Tests were run to determine whether exogenous STAMP can modulate the EC50 of glucocorticoids and the partial agonist activity of antiglucocorticoids in the transient transfection assays where GR induced gene expression from a GREtkLUC reporter.

GR = biological target: T2, GR (Rattus norvegicus, UniProt P06536); assay: Mammalian two-hybrid assay in CV-1 cells with VP16/GR; type: cell-based; conditions: VP16/GR ± 1 μM Dex
T2 construct: plus VP16 fused to the indicated full length receptors; expressed in transfected cells; host or cells: CV-1
T2 sequence (P06536 1-795): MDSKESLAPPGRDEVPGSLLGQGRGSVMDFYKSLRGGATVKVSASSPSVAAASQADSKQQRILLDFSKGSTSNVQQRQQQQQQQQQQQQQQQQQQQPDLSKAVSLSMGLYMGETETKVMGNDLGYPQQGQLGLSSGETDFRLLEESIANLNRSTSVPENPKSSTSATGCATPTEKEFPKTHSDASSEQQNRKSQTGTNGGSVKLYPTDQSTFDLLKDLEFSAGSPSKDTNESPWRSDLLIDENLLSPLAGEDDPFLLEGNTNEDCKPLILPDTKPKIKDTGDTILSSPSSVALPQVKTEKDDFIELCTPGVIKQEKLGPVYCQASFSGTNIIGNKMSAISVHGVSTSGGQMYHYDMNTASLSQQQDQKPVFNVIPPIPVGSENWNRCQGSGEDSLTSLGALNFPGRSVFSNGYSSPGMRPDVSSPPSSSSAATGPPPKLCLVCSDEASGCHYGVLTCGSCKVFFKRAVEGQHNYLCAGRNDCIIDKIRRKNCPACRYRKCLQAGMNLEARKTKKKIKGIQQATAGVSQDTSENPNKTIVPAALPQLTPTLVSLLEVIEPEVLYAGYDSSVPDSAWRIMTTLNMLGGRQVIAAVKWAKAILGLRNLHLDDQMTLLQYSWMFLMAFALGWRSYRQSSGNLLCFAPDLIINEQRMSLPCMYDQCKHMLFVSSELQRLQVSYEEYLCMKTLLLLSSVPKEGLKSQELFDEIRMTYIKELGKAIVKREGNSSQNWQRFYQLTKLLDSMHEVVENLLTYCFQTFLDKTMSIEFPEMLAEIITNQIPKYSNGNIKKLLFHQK
Excerpt: FIGS. 6A and 6B illustrate the domains of STAMP that interact with TIF2.4 (FIG. 6A) and GR (FIG. 6B) in the mammalian two-hybrid assay. […] These CV-1 cells were also transfected with GAL fused to the indicated segments of STAMP along with the FRLuc reporter and Renilla control plasmids. After determining the relative luciferase activities as described in FIG. 2B and 2C, the average values±S.E.M. from 2-5 experiments were plotted. The average fold increase for VP16/TIF2.4 with GAL/STAMP(623-834) in FIG. 6A was 11.0±3.0 (SEM, n=5) above the VP16 control. The values in parentheses above the data bars in FIG. 6B indicate the fold increased interaction ±1 μM Dex.
These assays were conducted as described (He et al., 2002). In particular, the recommended procedure for the Mammalian Matchmaker two-hybrid assay kit (Clontech) was modified slightly by changing from a chloramphenicol acetyltransferase reporter to a Luciferase Reporter pFRLuc (Stratagene), which is under the control of five repeats of the upstream activating sequence for the binding of GAL4.

[3] = in the presence of transfected GR and TIF2

Q: How did the “fold repression of PMA-induced AP-1 expression by Dex-bound GR” value [1] turn out when `C[C@@H]1C[C@H]2[C@@H]3CCC4=CC(=O)C=C[C@]4(C)[C@@]3(F)[C@@H](O)C[C@]2(C)[C@@]1(O)C(=O)CO` [dexamethasone] was run?
A: Its value is “about 5 fold”.

Q: For “TIF2: glucocorticoid receptor coactivator transcription intermediary factor-2”, which “fold repression of PMA-induced AP-1 expression by Dex-bound GR” value [1] is on record?
A: The value was “about 9 fold”.

Q: And the “fold induction by PMA” value ([1]; 25 μM PMA, no Dex)?
A: Its value is “unchanged”.

Q: And the “effect on GR dose-response curve and induction parameters” value ([2]; TIF2 alone (FIG. 4A1))?
A: Its value is “similar, small effect”.

B1: GAL/N834: STAMP fragment amino acids 1-834, TTL domain and CID region (protein)
chain: MARDLEETASSSEDEEVISQEDHPCIMWTGGCRRIPVLVFHADAILTKDNNIRVIGERYHLSYKIVRTDSRLVRSILTAHGFHEVHPSSTDYNLMWTGSHLKPFLLRTLSEAQKVNHFPRSYELTRKDRLYKNIIRMQHTHGFKVFHILPQTFLLPAEYAEFCNSYSKDRGPWIVKPVASSRGRGVYLINNPNQISLEENILVSRYINNPLLIDDFKFDVRLYVLVTSYDPLVIYLYEEGLARFATVRYDQGAKNIRNQFMHLTNYSVNKKSGDYVSCDDPEVEDYGNKWSMSAMLRYLKQEGRDTTALMAHVEDLIIKTIISAELAIATACKTFVPHRSSCFELYGFDVLIDSTLKPWLLEVNLSPSLACDAPLDLKIKASMISDMFTVVGFVCQDPAQRASTRPIYPTFESSRRNPFQKPQRCRPLSASDAEMKNLVGSAREKGPGKLGGSVLGLSMEEIKVLRRVKEENDRRGGFIRIFPTSETWEIYGSYLEHKTSMNYMLATRLFQDRMTADGAPELKIESLNSKAKLHAALYERKLLSLEVRKRRRRSSRLRAMRPKYPVITQPAEMNVKTETESEEEEEVALDNEDEEQEASQEESAGFLRENQAKYTPSLTALVENTPKENSMKVREWNNKGGHCCKLETQELEPKFNLMQILQDNGNLSKMQARIAFSAYLQHVQIRLMKDSGGQTFSASWAAKEDEQMELVVRFLKRASNNLQHSLRMVLPSRRLALLERRRILAHQLGDFIIVYNKETEQMAEKKSKKKVEEEEEDGVNMENFQEFIRQASEAELEEVLTFYTQKNKSASVFLGTHSKISKNNNNYSDSGAKG
modifications: GAL4 DBD fusion
notes: STAMP fragment amino acids 1-834, TTL domain and CID region
Q: How did the “interaction with GR” value (GR) turn out when B1 was run?
A: The value was “relative inactivity”.

B2: STAMP(834-956): STAMP fragment amino acids 834-956, N-terminal portion of the RID (protein)
chain: GDHPETIMEEVKIKPPKQQQTTEIHSDKLSRFTTSAEKEAKLVYSNSSSGPTATLQKIPNTHLSSVTTSDLSPGPCHHSSLSQIPSAIPSMPHQPTILLNTVSASASPCLHPGAQNIPSPTGL
modifications: GAL4 DBD fusion
notes: STAMP fragment amino acids 834-956, N-terminal portion of the RID
Q: How did the “interaction with GR” value (GR) turn out when B2 was run?
A: Its value is “substantial ligand-independent association”.

B3: 956-1127: STAMP fragment amino acids 956 to 1127, portion of the RID region (protein)
chain: LPRCRSGSHTIGPFSSFQSAAHIYSQKLSRPSSAKAGSCYLNKHHSGIAKTQKEGEDASLYSKRYNQSMVTAELQRLAEKQAARQYSPSSHINLLTQQVTNLNLATGIINRSSASAPPTLRPIISPSGPTWSTQSDPQAPENHSSSPGSRSLQTGGFAWEGEVENNVYSQAT
modifications: GAL4 DBD fusion
notes: STAMP fragment amino acids 956 to 1127, portion of the RID region
Q: For B3, which “interaction with GR” value (GR) is on record?
A: The value was “largest agonist-induced changes”.

B4: 1127C: STAMP fragment amino acids 1127 to 1277, C-terminal part of the RID (protein)
chain: TGVVPQHKYHPTAGSYQLQFALQQLEQQKLQSRQLLDQSRARHQAIFGSQTLPNSNLWTMNNGAGCRISSATASGQKPTTLPQKVVPPPSSCASLVPKPPPNHEQVLRRATSQKASKGSSAEGQLNGLQSSLNPAASVPITSSTDPAHTKI
modifications: GAL4 DBD fusion
notes: STAMP fragment amino acids 1127 to 1277, C-terminal part of the RID
Q: With B4 as the molecule, how does the “interaction with GR” value (GR) read?
A: Its value is “largest agonist-induced changes”.

B5: STAMP623C: STAMP fragment amino acids 623 to 1277, CID and RID but no TTL domain (protein)
chain: ENTPKENSMKVREWNNKGGHCCKLETQELEPKFNLMQILQDNGNLSKMQARIAFSAYLQHVQIRLMKDSGGQTFSASWAAKEDEQMELVVRFLKRASNNLQHSLRMVLPSRRLALLERRRILAHQLGDFIIVYNKETEQMAEKKSKKKVEEEEEDGVNMENFQEFIRQASEAELEEVLTFYTQKNKSASVFLGTHSKISKNNNNYSDSGAKGDHPETIMEEVKIKPPKQQQTTEIHSDKLSRFTTSAEKEAKLVYSNSSSGPTATLQKIPNTHLSSVTTSDLSPGPCHHSSLSQIPSAIPSMPHQPTILLNTVSASASPCLHPGAQNIPSPTGLPRCRSGSHTIGPFSSFQSAAHIYSQKLSRPSSAKAGSCYLNKHHSGIAKTQKEGEDASLYSKRYNQSMVTAELQRLAEKQAARQYSPSSHINLLTQQVTNLNLATGIINRSSASAPPTLRPIISPSGPTWSTQSDPQAPENHSSSPGSRSLQTGGFAWEGEVENNVYSQATGVVPQHKYHPTAGSYQLQFALQQLEQQKLQSRQLLDQSRARHQAIFGSQTLPNSNLWTMNNGAGCRISSATASGQKPTTLPQKVVPPPSSCASLVPKPPPNHEQVLRRATSQKASKGSSAEGQLNGLQSSLNPAASVPITSSTDPAHTKI
Q: For B5, which “ability to increase the partial agonist activity of Dex-Mes, retained” value [2, 3] is on record?
A: Its value is 40%.

Q: And the “capacity of full length STAMP to increase the fold induction with Dex, retained” value [2, 3]?
A: Its value is 85%.
